Results: publication PMC9482650, “Quantitative fragmentomics allow affinity mapping of interactomes” (Nature Communications, 2022)

How the values were obtained:
Assay in all cases: holdup assay
Set-up in all cases: key: below the threshold = too weak to quantify, mostly under pKd 3.1 to 4
Inadl_5, Q8NI35 = target: Inadl_5, Q8NI35
PICK1, Q9NRD5 = target: PICK1, Q9NRD5
MAST2, Q6P0Q8 = target: MAST2, Q6P0Q8
DLG4_1, P78352 = target: DLG4_1, P78352
MAGI1_2, Q96QZ7 = target: MAGI1_2, Q96QZ7
LAP2, Q96RT1 = target: LAP2, Q96RT1
Chain of LAP2, Q96RT1 (Q96RT1 other isoform, or with tags, fused parts or gaps): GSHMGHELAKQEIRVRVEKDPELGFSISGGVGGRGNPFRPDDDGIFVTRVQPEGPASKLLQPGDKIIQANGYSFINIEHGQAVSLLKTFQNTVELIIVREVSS

LRRC7, Q96NW7 = target: T1, LRRC7, Q96NW7
T1 sequence (Q96NW7 1440-1537, limits assumed, looked up): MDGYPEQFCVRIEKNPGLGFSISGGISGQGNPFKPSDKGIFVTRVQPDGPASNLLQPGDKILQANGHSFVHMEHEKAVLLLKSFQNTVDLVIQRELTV

NHERF3_1, Q5T2W1 = target: T2, NHERF3_1, Q5T2W1
T2 sequence (Q5T2W1 4-100, limits assumed, looked up): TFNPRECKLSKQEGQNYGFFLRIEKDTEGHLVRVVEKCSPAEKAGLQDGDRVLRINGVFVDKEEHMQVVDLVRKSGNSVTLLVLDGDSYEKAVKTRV

NHERF3_4, Q5T2W1 = target: T3, NHERF3_4, Q5T2W1
T3 sequence (Q5T2W1 373-468, limits assumed, looked up): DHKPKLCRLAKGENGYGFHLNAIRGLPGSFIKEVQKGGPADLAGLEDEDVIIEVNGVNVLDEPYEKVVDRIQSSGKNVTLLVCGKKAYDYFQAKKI

GRIP1_3, Q9Y3R0 = target: T4, GRIP1_3, Q9Y3R0
T4 sequence (Q9Y3R0 247-346, limits assumed, looked up): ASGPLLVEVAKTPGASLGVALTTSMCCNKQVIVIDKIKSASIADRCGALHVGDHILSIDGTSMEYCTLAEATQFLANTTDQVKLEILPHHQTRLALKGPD

PCLO, Q9Y6V0 = target: T5, PCLO, Q9Y6V0
T5 sequence (Q9Y6V0 4491-4600, limits assumed, looked up): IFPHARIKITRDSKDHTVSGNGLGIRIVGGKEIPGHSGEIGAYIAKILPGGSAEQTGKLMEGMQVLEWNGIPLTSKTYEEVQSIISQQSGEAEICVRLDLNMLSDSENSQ

DFNB31_1, Q9P202 = target: T6, DFNB31_1, Q9P202
T6 sequence (Q9P202 135-233, limits assumed, looked up): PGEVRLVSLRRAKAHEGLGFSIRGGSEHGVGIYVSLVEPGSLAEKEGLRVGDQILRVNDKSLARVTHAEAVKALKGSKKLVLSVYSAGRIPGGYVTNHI

GRIP2_4, Q9C0E4 = target: GRIP2_4, Q9C0E4
Chain of GRIP2_4, Q9C0E4 (Q9C0E4 446-548): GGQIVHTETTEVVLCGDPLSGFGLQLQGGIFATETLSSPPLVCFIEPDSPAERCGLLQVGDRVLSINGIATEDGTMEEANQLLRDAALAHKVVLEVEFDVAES

DLG1_2, Q12959 = target: DLG1_2, Q12959
Chain of DLG1_2, Q12959 (Q12959 314-412): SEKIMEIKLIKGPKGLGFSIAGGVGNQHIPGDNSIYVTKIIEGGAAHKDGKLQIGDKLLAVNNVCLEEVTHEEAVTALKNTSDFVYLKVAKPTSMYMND

ARHGEF12, Q9NZN5-2 = target: ARHGEF12, Q9NZN5-2
Chain of ARHGEF12, Q9NZN5-2 (Q9NZN5 other isoform, or with tags, fused parts or gaps): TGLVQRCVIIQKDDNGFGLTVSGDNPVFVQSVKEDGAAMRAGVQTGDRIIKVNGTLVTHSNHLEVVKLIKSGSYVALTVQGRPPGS

RADIL, Q96JH8 = target: T7, RADIL, Q96JH8
T7 sequence (Q96JH8 971-1071, limits assumed, looked up): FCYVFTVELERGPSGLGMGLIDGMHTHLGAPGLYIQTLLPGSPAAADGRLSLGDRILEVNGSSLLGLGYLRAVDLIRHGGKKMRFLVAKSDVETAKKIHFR

HTRA4, P83105 = target: T8, HTRA4, P83105
T8 sequence (P83105 378-476, limits assumed, looked up): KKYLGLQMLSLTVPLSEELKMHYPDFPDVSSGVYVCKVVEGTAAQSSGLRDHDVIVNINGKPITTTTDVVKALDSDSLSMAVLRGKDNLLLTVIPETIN

IL16_1, Q14005 = target: IL16_1, Q14005
Chain of IL16_1, Q14005 (Q14005 210-306): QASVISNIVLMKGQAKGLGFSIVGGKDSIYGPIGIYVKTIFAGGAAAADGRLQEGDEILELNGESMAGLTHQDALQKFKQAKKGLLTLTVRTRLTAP

PDZRN3_1, Q9UPQ7 = target: T9, PDZRN3_1, Q9UPQ7
T9 sequence (Q9UPQ7 244-349, limits assumed, looked up): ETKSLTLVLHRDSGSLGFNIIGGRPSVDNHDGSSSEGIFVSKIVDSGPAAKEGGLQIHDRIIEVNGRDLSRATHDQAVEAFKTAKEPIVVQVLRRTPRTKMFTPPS

Inadl_2, Q8NI35 = target: Inadl_2, Q8NI35
Chain of Inadl_2, Q8NI35 (Q8NI35 238-335): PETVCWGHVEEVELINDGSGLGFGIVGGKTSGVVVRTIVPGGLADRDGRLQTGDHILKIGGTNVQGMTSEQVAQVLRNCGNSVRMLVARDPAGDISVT

RHPN1, Q8TCX5 = target: T10, RHPN1, Q8TCX5
T10 sequence (Q8TCX5 508-602, limits assumed, looked up): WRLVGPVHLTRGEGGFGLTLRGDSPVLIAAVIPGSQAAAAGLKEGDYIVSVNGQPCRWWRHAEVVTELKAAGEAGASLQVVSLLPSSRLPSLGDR

MPP7, Q5T2T1 = target: T11, MPP7, Q5T2T1
T11 sequence (Q5T2T1 134-230, limits assumed, looked up): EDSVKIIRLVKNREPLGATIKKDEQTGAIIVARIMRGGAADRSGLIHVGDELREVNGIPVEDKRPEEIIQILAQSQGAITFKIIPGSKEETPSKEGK

PARD3_3, Q8TEW0 = target: PARD3_3, Q8TEW0
Chain of PARD3_3, Q8TEW0 (Q8TEW0 582-685): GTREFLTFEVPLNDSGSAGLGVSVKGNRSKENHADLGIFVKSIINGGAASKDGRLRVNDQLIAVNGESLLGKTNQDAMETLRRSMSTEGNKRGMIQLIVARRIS

LIN7A, O14910 = target: T12, LIN7A, O14910
T12 sequence (O14910 103-200, limits assumed, looked up): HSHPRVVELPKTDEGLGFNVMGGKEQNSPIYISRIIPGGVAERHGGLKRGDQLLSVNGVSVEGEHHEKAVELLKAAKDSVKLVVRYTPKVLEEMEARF

[1] = plain residues with an end cap or a label only (N-terminal biotin on a linker: ado-ado)
[2] = plain residues with an end cap or a label only (N-terminal biotin on a linker: gsgsgs; C-terminal amide)
[3] = plain residues with an end cap or a label only (N-terminal biotin on a linker: none)

Chain of MAST2, Q6P0Q8 (Q6P0Q8 1099-1202): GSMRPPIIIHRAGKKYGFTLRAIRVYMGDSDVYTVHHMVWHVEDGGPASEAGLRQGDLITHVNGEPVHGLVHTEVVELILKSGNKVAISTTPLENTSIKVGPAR
Chain of PICK1, Q9NRD5 (Q9NRD5 17-115): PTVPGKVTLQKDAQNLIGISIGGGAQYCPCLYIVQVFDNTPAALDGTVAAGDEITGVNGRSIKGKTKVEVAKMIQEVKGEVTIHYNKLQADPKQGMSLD
Chain of MAGI1_2, Q96QZ7 (Q96QZ7 456-580): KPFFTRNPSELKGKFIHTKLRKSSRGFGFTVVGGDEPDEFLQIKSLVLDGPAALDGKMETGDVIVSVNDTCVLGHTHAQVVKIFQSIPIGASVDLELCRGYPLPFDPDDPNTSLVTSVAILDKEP
Chain of Inadl_5, Q8NI35 (Q8NI35 673-780): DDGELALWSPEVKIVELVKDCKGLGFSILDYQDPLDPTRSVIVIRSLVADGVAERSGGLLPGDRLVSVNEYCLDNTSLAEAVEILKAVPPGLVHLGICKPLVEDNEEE
Chain of DLG4_1, P78352 (P78352 62-152): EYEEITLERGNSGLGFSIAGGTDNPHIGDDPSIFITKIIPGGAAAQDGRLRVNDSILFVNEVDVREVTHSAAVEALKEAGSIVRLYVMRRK

B1: EPHA7, Q15375 (peptide)
chain: LHLHGTGIQV
Work on B1 yielded a pKd (Inadl_5, Q8NI35; [1]) of 4.04, a pKd (PICK1, Q9NRD5; [1]) of 3.56 and a pKd (MAST2, Q6P0Q8; [1]) of 4.63. For the same binder, the pKd (DLG4_1, P78352; [1]) was 3.73, the pKd (MAGI1_2, Q96QZ7; [1]) was “below the threshold” and the pKd (LAP2, Q96RT1; [1]) was 3.63. For the same binder, the pKd (LRRC7, Q96NW7; [1]) was “below the threshold”, the pKd (NHERF3_1, Q5T2W1; [1]) was “below the threshold” and the pKd (NHERF3_4, Q5T2W1; [1]) was 3.81. For the same binder, the pKd (GRIP1_3, Q9Y3R0; [1]) was “below the threshold”, the pKd (PCLO, Q9Y6V0; [1]) was “below the threshold” and the pKd (DFNB31_1, Q9P202; [1]) was 3.53. For the same binder, the pKd (GRIP2_4, Q9C0E4; [1]) was “below the threshold”, the pKd (DLG1_2, Q12959; [1]) was 3.6 and the pKd (ARHGEF12, Q9NZN5-2; [1]) was 4.19. The pKd (RADIL, Q96JH8; [1]) was 4.58, the pKd (HTRA4, P83105; [1]) was 4.1 and the pKd (IL16_1, Q14005; [1]) was “below the threshold”. For the same binder, the pKd (PDZRN3_1, Q9UPQ7; [1]) was “below the threshold”, the pKd (Inadl_2, Q8NI35; [1]) was “below the threshold” and the pKd (RHPN1, Q8TCX5; [1]) was “below the threshold”. The pKd (MPP7, Q5T2T1; [1]) was “below the threshold”, the pKd (PARD3_3, Q8TEW0; [1]) was 3.64 and the pKd (LIN7A, O14910; [1]) was “below the threshold”.

B2: ARAP3_int, Q8WWN8 (peptide)
chain: ELIQDTSTSFSTTREW
With B2 the pKd (Inadl_5, Q8NI35; [2]) was “below the threshold”, the pKd (PICK1, Q9NRD5; [2]) was “below the threshold” and the pKd (MAST2, Q6P0Q8; [2]) was “below the threshold”. The pKd (DLG4_1, P78352; [2]) was “below the threshold”, the pKd (MAGI1_2, Q96QZ7; [2]) was “below the threshold” and the pKd (LAP2, Q96RT1; [2]) was “below the threshold”. The pKd (LRRC7, Q96NW7; [2]) was “below the threshold”, the pKd (NHERF3_1, Q5T2W1; [2]) was “below the threshold” and the pKd (NHERF3_4, Q5T2W1; [2]) was “below the threshold”. For the same binder, the pKd (GRIP1_3, Q9Y3R0; [2]) was “below the threshold”, the pKd (PCLO, Q9Y6V0; [2]) was “below the threshold” and the pKd (DFNB31_1, Q9P202; [2]) was “below the threshold”. For the same binder, the pKd (GRIP2_4, Q9C0E4; [2]) was “below the threshold”, the pKd (DLG1_2, Q12959; [2]) was “below the threshold” and the pKd (ARHGEF12, Q9NZN5-2; [2]) was “below the threshold”. For the same binder, the pKd (RADIL, Q96JH8; [2]) was “below the threshold”, the pKd (HTRA4, P83105; [2]) was “below the threshold” and the pKd (IL16_1, Q14005; [2]) was “below the threshold”. For the same binder, the pKd (PDZRN3_1, Q9UPQ7; [2]) was “below the threshold”, the pKd (Inadl_2, Q8NI35; [2]) was “below the threshold” and the pKd (RHPN1, Q8TCX5; [2]) was “below the threshold”. For the same binder, the pKd (MPP7, Q5T2T1; [2]) was “below the threshold”, the pKd (PARD3_3, Q8TEW0; [2]) was “below the threshold” and the pKd (LIN7A, O14910; [2]) was “below the threshold”.

B3: MERS-E, K9N5R3 (peptide)
chain: DSKPPLPPDEWV
For B3, the pKd (Inadl_5, Q8NI35; [3]) was 3.74, the pKd (PICK1, Q9NRD5; [3]) was “below the threshold” and the pKd (MAST2, Q6P0Q8; [3]) was 3.66. The pKd (DLG4_1, P78352; [3]) was 3.62, the pKd (MAGI1_2, Q96QZ7; [3]) was “below the threshold” and the pKd (LAP2, Q96RT1; [3]) was 5.24. The pKd (LRRC7, Q96NW7; [3]) was 4.4, the pKd (NHERF3_1, Q5T2W1; [3]) was “below the threshold” and the pKd (NHERF3_4, Q5T2W1; [3]) was “below the threshold”. For the same binder, the pKd (GRIP1_3, Q9Y3R0; [3]) was “below the threshold”, the pKd (PCLO, Q9Y6V0; [3]) was “below the threshold” and the pKd (DFNB31_1, Q9P202; [3]) was 3.61. The pKd (GRIP2_4, Q9C0E4; [3]) was “below the threshold”, the pKd (DLG1_2, Q12959; [3]) was 3.57 and the pKd (ARHGEF12, Q9NZN5-2; [3]) was 3.76. For the same binder, the pKd (RADIL, Q96JH8; [3]) was 4.06, the pKd (HTRA4, P83105; [3]) was 3.68 and the pKd (IL16_1, Q14005; [3]) was 3.64. For the same binder, the pKd (PDZRN3_1, Q9UPQ7; [3]) was “below the threshold”, the pKd (Inadl_2, Q8NI35; [3]) was “below the threshold” and the pKd (RHPN1, Q8TCX5; [3]) was “below the threshold”. For the same binder, the pKd (MPP7, Q5T2T1; [3]) was “below the threshold”, the pKd (PARD3_3, Q8TEW0; [3]) was 4.07 and the pKd (LIN7A, O14910; [3]) was “below the threshold”.
